# Laboratory results reported in patent publication US20260209362A1 (VIB VZW, published 2026).
# B1: anti-IL-12Rβ2 VHH clone 21060 (VHH, not shown: small tags and cut ends)
# VHH: QVQLQESGGGLVQAGGSLSLSCAASGSAFRLNFMGWYRQAPGKQRELVAAINSGGTEIYHDSVKGRFTISRDNADSTVWLQMNSLKPDDTAVYYCAADRGISWSKLAGGMDYWGKGTQVTVSS
# notes: tested as periplasmic extract; also called 3CRHM73
# B2: anti-IL-12Rβ2 VHH clone 21051 (VHH, not shown: small tags and cut ends)
# VHH: QVQLQESGGGSVQAGGSLRLSCAVSGRTVSDYAMGWFRQAPGKEREFVAAMSSSETTVYPNSMKGRITISRDNAKNAVYLQLNALKPEDTAVYYCSMGPIATFQGLARQNEYHYWGQGTQVTVSS
# notes: tested as periplasmic extract; also called 3CAHM40
# B3: anti-IL-12Rβ2 VHH clone 21065 (VHH, not shown: small tags and cut ends)
# VHH: QVQLQESGGGSVQAGGSLRLSCAVSGRTVSDYAMGWFRQAPGKEREFVVAMSSSETTVYTNSVKGRITISRDNAKNAVYLQMNALKPEDTAVYYCSMGPITTFQGLARQNEYHYWGQGTQVTVSS
# notes: tested as periplasmic extract; also called 3CRHM240
# B4: anti-IL-12Rβ2 VHH clone 21063 (VHH, not shown: small tags and cut ends)
# VHH: QVQLQESGGGSVQAGGSLRLSCAVSGRPVSDYAMGWFRQAPGKEREFVAALSASDTTVYPNSVKGRITISRDNAKNAVDLQMNALKPEDTAVYYCAMGPIGTFQGLARQNEYHYWGQGTQVTVSS
# notes: tested as periplasmic extract; also called 3CRHM133
# Key:
# [1] = molecular target: T1, biotinylated recombinant human IL-12Rβ2 (human, UniProt Q99665 24-622, random biotinylated); assay: BLI (Octet), periplasmic extract on biotinylated hIL-12Rβ2 on streptavidin tips
# T1 construct: Recombinant protein produced in-house, biotinylated; also called hIL-12RB2; human IL-12RB2
# T1 sequence: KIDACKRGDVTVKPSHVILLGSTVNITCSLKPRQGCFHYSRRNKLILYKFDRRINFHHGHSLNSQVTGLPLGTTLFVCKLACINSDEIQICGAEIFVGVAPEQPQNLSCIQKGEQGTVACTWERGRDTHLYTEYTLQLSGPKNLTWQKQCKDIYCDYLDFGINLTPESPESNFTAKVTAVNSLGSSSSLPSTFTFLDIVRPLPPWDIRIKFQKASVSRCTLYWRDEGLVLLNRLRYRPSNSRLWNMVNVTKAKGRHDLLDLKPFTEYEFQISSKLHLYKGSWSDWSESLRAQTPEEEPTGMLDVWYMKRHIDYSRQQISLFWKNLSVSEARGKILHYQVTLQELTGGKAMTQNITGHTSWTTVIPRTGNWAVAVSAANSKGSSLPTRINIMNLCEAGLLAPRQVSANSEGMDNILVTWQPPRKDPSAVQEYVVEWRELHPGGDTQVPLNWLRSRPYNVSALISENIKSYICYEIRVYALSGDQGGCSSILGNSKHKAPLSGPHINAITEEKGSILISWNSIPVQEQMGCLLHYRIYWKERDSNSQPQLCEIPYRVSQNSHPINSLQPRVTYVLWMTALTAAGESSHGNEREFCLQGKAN
# [2] = molecular target: T2, biotinylated recombinant mouse IL-12Rβ2 (mouse, UniProt P97378 24-637, random biotinylated); assay: BLI (Octet), periplasmic extract on biotinylated mIL-12Rβ2 on streptavidin tips
# T2 construct: Recombinant protein produced in-house, biotinylated; also called mIL-12RB2; mouse IL-12RB2
# T2 sequence: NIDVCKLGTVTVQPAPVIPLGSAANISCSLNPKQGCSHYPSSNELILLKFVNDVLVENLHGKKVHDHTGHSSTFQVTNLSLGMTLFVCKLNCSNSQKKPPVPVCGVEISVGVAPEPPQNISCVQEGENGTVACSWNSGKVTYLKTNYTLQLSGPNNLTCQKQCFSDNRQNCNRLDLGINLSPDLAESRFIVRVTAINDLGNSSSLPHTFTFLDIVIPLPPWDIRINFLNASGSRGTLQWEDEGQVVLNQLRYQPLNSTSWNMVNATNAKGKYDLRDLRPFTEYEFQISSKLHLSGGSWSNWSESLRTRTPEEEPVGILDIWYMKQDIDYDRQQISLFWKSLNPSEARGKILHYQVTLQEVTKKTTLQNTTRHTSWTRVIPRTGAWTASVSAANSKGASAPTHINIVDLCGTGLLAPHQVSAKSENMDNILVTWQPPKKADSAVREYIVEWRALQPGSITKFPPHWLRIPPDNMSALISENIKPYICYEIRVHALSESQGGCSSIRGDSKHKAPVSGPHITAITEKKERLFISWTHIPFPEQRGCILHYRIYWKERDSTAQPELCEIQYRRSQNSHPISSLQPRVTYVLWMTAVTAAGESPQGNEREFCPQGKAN
# [3] = molecular target: T1, biotinylated recombinant human IL-12Rβ2; assay: ELISA, periplasmic extract on biotinylated hIL-12Rβ2, signal over control wells
# [4] = molecular target: T2, biotinylated recombinant mouse IL-12Rβ2; assay: ELISA, periplasmic extract on biotinylated mIL-12Rβ2, signal over control wells
# [5] = molecular target: T1, biotinylated recombinant human IL-12Rβ2; assay: BLI (Octet), periplasmic extract on biotinylated hIL-12Rβ2 on streptavidin tips, 1:1 model
# [6] = molecular target: T2, biotinylated recombinant mouse IL-12Rβ2; assay: BLI (Octet), periplasmic extract on biotinylated mIL-12Rβ2 on streptavidin tips, 1:1 model
Binder,Response [1],Response [2],ELISA binding hIL-12RB2/control [3] [ratio],ELISA binding mIL-12RB2/control [4] [ratio],koff [5] [s⁻¹],koff [6] [s⁻¹]
B1,1.45,0.944,6.9,26.3,0.00605,0.00605
B2,1.32,0.809,3.73,11.9,0.00578,0.00644
B3,1.5,1.05,3.78,5.72,0.00457,0.00483
B4,1.13,0.97,3.46,3.92,0.00389,0.00667
